Among the data in patent publication US20190225650A1, “PEPTIDOMIMETIC MACROCYCLES AND USE THEREOF IN REGULATING HIF1ALPHA” (AILERON THERAPEUTICS, INC., priority 2013, published 2019) are IC50 values, retold here.

Bridge positions count the residues as written; N and C are the ends. Square brackets hold non-standard residues; d marks the D form. S5 = C=CCCC[C@](C)(N)C(=O)O; Nle = CCCC[C@H](N)C(=O)O Where only a bound is given, the exact number is not on record here.

The target in this experiment is T1, His6-tagged p300 (AA 323-423) (UniProt Q09472 323-423).
T1 construct: range 323-423; also called p300-CH; not shown: His6 tag
T1 sequence (Q09472 323-423 limits assumed): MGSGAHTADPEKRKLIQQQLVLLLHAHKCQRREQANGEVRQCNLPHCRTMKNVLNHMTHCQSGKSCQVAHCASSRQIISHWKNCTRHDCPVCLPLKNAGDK
Nature of the experiment: TR-FRET HIF1a/p300 displacement; grade = IC50 >700 nM. Here is the method: The ability of peptides to displace HIF1α c-terminal trans-activation domain from p300-CH was measured by a TR FRET assay. […] The complex was diluted to 300 nM final in complete assay media and competitor peptides were added. The complete assay media contained 150 mM NaCl (Sigma +S5150 or equivalent), 20 mM HEPES pH 7.4 (Boston Bioproducts, Ashland, Mass.; #BB-2076), 7.5 mM CHAPS (Thermo #28300 or equivalent), and 1 mM DTT. Protein and peptide were incubated at room temperature for 1 hour before the addition of anti-Flag-K and anti-6×HIS-D2 (CisBio, Bedford Mass.) HTRF reconstitution buffer (50 mM Phosphate pH 7, 0.8 Potassium Flouride, BSA 0.2%)¹ to a final concentration of 0.5 μM and 4 nM respectively. The reaction continued for an additional two hours at room temperature. The reaction was read on a TECAN F500 plate reader with settings recommended by CisBio. The ratio of donor to acceptor fluorescence was calculated. The resulting data was analyzed with Graphpad Prism 5.0. IC50 values were calculated for both proteins using the One Site Fit-LogIC50 equation and presented in the column “IC₅₀ (nM) (HIF1α_p300 Displacement+CHAPS)” of Table 6. ¹ Cisbio USA, Bedford, Mass.; 61HISDLB (lot 007A), 61FG2KLB (024A), HTRF Buffer (62RB3RDF)

B1: SP-37 (peptide)
peptide: Ac-FIDEEVL[Nle][S5]LVE[S5][Nle]ALDRI-NH2
modifications: staple 9-13
SMILES: CCCC[C@H](NC(=O)[C@H](CC(C)C)NC(=O)[C@@H](NC(=O)[C@H](CCC(=O)O)NC(=O)[C@H](CCC(=O)O)NC(=O)[C@H](CC(=O)O)NC(=O)[C@@H](NC(=O)[C@H](Cc1ccccc1)NC(C)=O)[C@@H](C)CC)C(C)C)C(=O)N[C@@]1(C)CCCC=CCCC[C@@](C)(C(=O)N[C@@H](CCCC)C(=O)N[C@@H](C)C(=O)N[C@@H](CC(C)C)C(=O)N[C@@H](CC(=O)O)C(=O)N[C@@H](CCCNC(=N)N)C(=O)N[C@H](C(N)=O)[C@@H](C)CC)NC(=O)[C@H](CCC(=O)O)NC(=O)[C@H](C(C)C)NC(=O)[C@H](CC(C)C)NC1=O
For the molecule B1, the IC50 was > 700 nM.

B2: SP-38 (peptide)
peptide: Ac-FIDEEVL[Nle][S5]LVI[S5]EALDRI-NH2
modifications: staple 9-13
SMILES: CCCC[C@H](NC(=O)[C@H](CC(C)C)NC(=O)[C@@H](NC(=O)[C@H](CCC(=O)O)NC(=O)[C@H](CCC(=O)O)NC(=O)[C@H](CC(=O)O)NC(=O)[C@@H](NC(=O)[C@H](Cc1ccccc1)NC(C)=O)[C@@H](C)CC)C(C)C)C(=O)N[C@@]1(C)CCCC=CCCC[C@@](C)(C(=O)N[C@@H](CCC(=O)O)C(=O)N[C@@H](C)C(=O)N[C@@H](CC(C)C)C(=O)N[C@@H](CC(=O)O)C(=O)N[C@@H](CCCNC(=N)N)C(=O)N[C@H](C(N)=O)[C@@H](C)CC)NC(=O)[C@H]([C@@H](C)CC)NC(=O)[C@H](C(C)C)NC(=O)[C@H](CC(C)C)NC1=O
Consider B2, for which the IC50 was > 700 nM.

B3: SP-39 (peptide)
peptide: Ac-FIDEEVL[Nle][S5]LVI[S5][Nle]ELDRI-NH2
modifications: staple 9-13
SMILES: CCCC[C@H](NC(=O)[C@H](CC(C)C)NC(=O)[C@@H](NC(=O)[C@H](CCC(=O)O)NC(=O)[C@H](CCC(=O)O)NC(=O)[C@H](CC(=O)O)NC(=O)[C@@H](NC(=O)[C@H](Cc1ccccc1)NC(C)=O)[C@@H](C)CC)C(C)C)C(=O)N[C@@]1(C)CCCC=CCCC[C@@](C)(C(=O)N[C@@H](CCCC)C(=O)N[C@@H](CCC(=O)O)C(=O)N[C@@H](CC(C)C)C(=O)N[C@@H](CC(=O)O)C(=O)N[C@@H](CCCNC(=N)N)C(=O)N[C@H](C(N)=O)[C@@H](C)CC)NC(=O)[C@H]([C@@H](C)CC)NC(=O)[C@H](C(C)C)NC(=O)[C@H](CC(C)C)NC1=O
Take B3: the IC50 was > 700 nM.

B4: SP-29 (peptide)
peptide: Ac-DFIDEEVL[Nle][S5]LVI[S5][Nle]ALDRI-NH2
modifications: staple 10-14
SMILES: CCCC[C@H](NC(=O)[C@H](CC(C)C)NC(=O)[C@@H](NC(=O)[C@H](CCC(=O)O)NC(=O)[C@H](CCC(=O)O)NC(=O)[C@H](CC(=O)O)NC(=O)[C@@H](NC(=O)[C@H](Cc1ccccc1)NC(=O)[C@H](CC(=O)O)NC(C)=O)[C@@H](C)CC)C(C)C)C(=O)N[C@@]1(C)CCCC=CCCC[C@@](C)(C(=O)N[C@@H](CCCC)C(=O)N[C@@H](C)C(=O)N[C@@H](CC(C)C)C(=O)N[C@@H](CC(=O)O)C(=O)N[C@@H](CCCNC(=N)N)C(=O)N[C@H](C(N)=O)[C@@H](C)CC)NC(=O)[C@H]([C@@H](C)CC)NC(=O)[C@H](C(C)C)NC(=O)[C@H](CC(C)C)NC1=O
As for B4, the concentration for half-maximal inhibition (IC50) was > 700 nM.

B5: SP-28 (peptide)
peptide: Ac-FIDEEVLA[S5]LVI[S5]AALDR-NH2
modifications: staple 9-13
SMILES: CC[C@H](C)[C@H](NC(=O)[C@H](Cc1ccccc1)NC(C)=O)C(=O)N[C@@H](CC(=O)O)C(=O)N[C@@H](CCC(=O)O)C(=O)N[C@@H](CCC(=O)O)C(=O)N[C@H](C(=O)N[C@@H](CC(C)C)C(=O)N[C@@H](C)C(=O)N[C@@]1(C)CCCC=CCCC[C@@](C)(C(=O)N[C@@H](C)C(=O)N[C@@H](C)C(=O)N[C@@H](CC(C)C)C(=O)N[C@@H](CC(=O)O)C(=O)N[C@@H](CCCNC(=N)N)C(N)=O)NC(=O)[C@H]([C@@H](C)CC)NC(=O)[C@H](C(C)C)NC(=O)[C@H](CC(C)C)NC1=O)C(C)C
As for B5, the IC50 is > 700 nM.

B6: SP-42 (peptide)
peptide: Ac-FIDEEVL[Nle][S5]LVI[S5][Nle]ALDRE-NH2
modifications: staple 9-13
SMILES: CCCC[C@H](NC(=O)[C@H](CC(C)C)NC(=O)[C@@H](NC(=O)[C@H](CCC(=O)O)NC(=O)[C@H](CCC(=O)O)NC(=O)[C@H](CC(=O)O)NC(=O)[C@@H](NC(=O)[C@H](Cc1ccccc1)NC(C)=O)[C@@H](C)CC)C(C)C)C(=O)N[C@@]1(C)CCCC=CCCC[C@@](C)(C(=O)N[C@@H](CCCC)C(=O)N[C@@H](C)C(=O)N[C@@H](CC(C)C)C(=O)N[C@@H](CC(=O)O)C(=O)N[C@@H](CCCNC(=N)N)C(=O)N[C@@H](CCC(=O)O)C(N)=O)NC(=O)[C@H]([C@@H](C)CC)NC(=O)[C@H](C(C)C)NC(=O)[C@H](CC(C)C)NC1=O
Consider B6, for which the IC50 was > 700 nM.

B7: SP-45 (peptide)
peptide: Ac-FSDEEVL[Nle][S5]LVI[S5][Nle]ALDRI-NH2
modifications: staple 9-13
SMILES: CCCC[C@H](NC(=O)[C@H](CC(C)C)NC(=O)[C@@H](NC(=O)[C@H](CCC(=O)O)NC(=O)[C@H](CCC(=O)O)NC(=O)[C@H](CC(=O)O)NC(=O)[C@H](CO)NC(=O)[C@H](Cc1ccccc1)NC(C)=O)C(C)C)C(=O)N[C@@]1(C)CCCC=CCCC[C@@](C)(C(=O)N[C@@H](CCCC)C(=O)N[C@@H](C)C(=O)N[C@@H](CC(C)C)C(=O)N[C@@H](CC(=O)O)C(=O)N[C@@H](CCCNC(=N)N)C(=O)N[C@H](C(N)=O)[C@@H](C)CC)NC(=O)[C@H]([C@@H](C)CC)NC(=O)[C@H](C(C)C)NC(=O)[C@H](CC(C)C)NC1=O
Turning to B7, the 50% inhibitory concentration (IC50) is > 700 nM.

B8: SP-44 (peptide)
peptide: Ac-SIDEEVL[Nle][S5]LVI[S5][Nle]ALDRI-NH2
modifications: staple 9-13
SMILES: CCCC[C@H](NC(=O)[C@H](CC(C)C)NC(=O)[C@@H](NC(=O)[C@H](CCC(=O)O)NC(=O)[C@H](CCC(=O)O)NC(=O)[C@H](CC(=O)O)NC(=O)[C@@H](NC(=O)[C@H](CO)NC(C)=O)[C@@H](C)CC)C(C)C)C(=O)N[C@@]1(C)CCCC=CCCC[C@@](C)(C(=O)N[C@@H](CCCC)C(=O)N[C@@H](C)C(=O)N[C@@H](CC(C)C)C(=O)N[C@@H](CC(=O)O)C(=O)N[C@@H](CCCNC(=N)N)C(=O)N[C@H](C(N)=O)[C@@H](C)CC)NC(=O)[C@H]([C@@H](C)CC)NC(=O)[C@H](C(C)C)NC(=O)[C@H](CC(C)C)NC1=O
As for B8, the IC50 was > 700 nM.

B9: SP-198 (peptide)
peptide: Ac-FIAEXVL[Nle]SLVXA[Nle]AL-NH2
modifications: staple 5-12; not fully specified (residues 5, 12); printed as Ac-FIAE-$r8-VL-Nle-SLV-$-A-Nle-AL-NH2
Consider B9, for which the half-inhibitory concentration (IC50) is > 700 nM.

B10: SP-325 (peptide)
peptide: Ac-LLQ[S5]EEL[S5]RALDQVNIDE[S5]VL[Nle][S5]LVIE[Nle]G-NH2
modifications: staple 19-23, 4-8
SMILES: CCCC[C@H](NC(=O)[C@H](CCC(=O)O)NC(=O)[C@@H](NC(=O)[C@@H](NC(=O)[C@H](CC(C)C)NC(=O)[C@]1(C)CCCC=CCCC[C@](C)(NC(=O)[C@H](CCC(=O)O)NC(=O)[C@H](CC(=O)O)NC(=O)[C@@H](NC(=O)[C@H](CC(N)=O)NC(=O)[C@@H](NC(=O)[C@H](CCC(N)=O)NC(=O)[C@H](CC(=O)O)NC(=O)[C@H](CC(C)C)NC(=O)[C@H](C)NC(=O)[C@H](CCCNC(=N)N)NC(=O)[C@]2(C)CCCC=CCCC[C@](C)(NC(=O)[C@H](CCC(N)=O)NC(=O)[C@H](CC(C)C)NC(=O)[C@H](CC(C)C)NC(C)=O)C(=O)N[C@@H](CCC(=O)O)C(=O)N[C@@H](CCC(=O)O)C(=O)N[C@@H](CC(C)C)C(=O)N2)C(C)C)[C@@H](C)CC)C(=O)N[C@@H](C(C)C)C(=O)N[C@@H](CC(C)C)C(=O)N[C@@H](CCCC)C(=O)N1)C(C)C)[C@@H](C)CC)C(=O)NCC(N)=O
With B10, the IC50 was > 700 nM.

B11: SP-250 (peptide)
peptide: Ac-FIDQAVF[Nle][S5]LVI[S5][Nle]ALL-NH2
modifications: staple 9-13
SMILES: CCCC[C@H](NC(=O)[C@H](Cc1ccccc1)NC(=O)[C@@H](NC(=O)[C@H](C)NC(=O)[C@H](CCC(N)=O)NC(=O)[C@H](CC(=O)O)NC(=O)[C@@H](NC(=O)[C@H](Cc1ccccc1)NC(C)=O)[C@@H](C)CC)C(C)C)C(=O)N[C@@]1(C)CCCC=CCCC[C@@](C)(C(=O)N[C@@H](CCCC)C(=O)N[C@@H](C)C(=O)N[C@@H](CC(C)C)C(=O)N[C@@H](CC(C)C)C(N)=O)NC(=O)[C@H]([C@@H](C)CC)NC(=O)[C@H](C(C)C)NC(=O)[C@H](CC(C)C)NC1=O
In the case of B11, the IC50 was > 700 nM.
